Source: patent US10858423B2, “Composition for the treatment of IGF-1R expressing cancer” (PIERRE FABRE MEDICAMENT, priority 2015, dated 2020)

How the values were obtained:
soluble form of h-IGF1R = biological target: T1, soluble form of h-IGF1R (Homo sapiens, UniProt P08069); assay: Biacore binding competition on captured soluble h-IGF1R; details: antibodies 50 μg/ml, 25° C.
T1 construct: a heterotetramer composed by two alpha chains and two extracellular domains of the beta chains; made in house
Excerpt: The experiment was run on a Biacore X100 device based on the Surface Plasmon Resonance technology. A CM5 sensor chip was activated with a mouse anti-polyHistidine IgG1 monoclonal antibody chemically linked to the carboxymethyldextran matrix using the amine coupling chemistry. Typically, 12451 RU and 12257 RU of antibodies were grafted on the flowcell 1 (FC1) and flowcell 2 (FC2) respectively. The classical HBS-EP+ buffer was used as the running buffer. This buffer was also used for the preparation of the solutions of the proteins. The experiment was carried at 25° C. and at a flow rate of […].
The soluble form of IGF1R produced in house is a heterotetramer composed by two alpha chains and two extracellular domains of the beta chains completed by a 6 Histidine sequence at their C-terminal end. The protein is injected during one minute on the FC2 at the concentration of 30 μg/ml (about 80 nM). The antibodies are injected at the concentration of 50 μg/ml (about 330 nM). Either a first antibody solution (FIGS. 35B and 35D) or the running buffer (FIGS. 35A and 35C) is injected during 90 s on both flowcells. A second antibody solution is then injected on both flow cells. The absence of binding of the second antibody after the binding of the first antibody is the proof that both antibodies bind to a nearby site on the antigen (FIG. 35B) At the opposite the binding of the second antibody after the binding of the first antibody is the proof that the binding site of the second antibody is out and away of the binding site of the first antibody (FIG. 35D). At the end of each cycle, the sensor chip surface is regenerated by an injection of a Glycine, HCl 10 mM pH 1.5 buffer during 30 s.
The levels of binding of the Ac2 (arrows) without (FIGS. 35A and 35B) or with an Ac1 (FIGS. 35C and 35D) were recorded 20 s after the end of the injection. The data are represented on the histogram graph in FIG. 36.

IGF-1R on MCF-7 cells = biological target: T2, IGF-1R on MCF-7 cells (Homo sapiens, UniProt P08069); assay: IGF-1R internalization by FACS on MCF-7 cells; format: cell-based; details: Table 14c; MCF-7, 10 μg/ml, 4 h
T2 construct: host or cells: MCF-7
Experimental: (§1) MCF-7 cells were incubated with 10 μg/ml of chimeric antibodies at 4° C. for 20 min. Then, cells were washed and incubated at 4° C. or 37° C. for 4 h. The quantity of cell-surface bound antibody was determined using a secondary antibody. The ΔMFI defined as the difference between MFI measured at 4° C. and MFI measured at 37° C. after a 4 hour incubation time corresponded to the quantity of internalized second IGF-1R antibodies Ab. The percentage of internalization at 10 μg/ml of Ab were calculated as followed 100*(MFI at 4° C.-MFI at 37° C.)/MFI at 4° C. and presented in Table 12.
as §1, with “The capacity of the mAb hz208F2 H026/L024 to be internalized was assessed by flow cytometry. MCF-7” for “MCF-7”, “of” for “of chimeric”, “Then, cells were washed and incubated at 4° C. or 37° C. for 4 h.” left out, “internalized” for “internalized second IGF-1R antibodies”, “14a.” for “12.”
MCF-7 cells were incubated with 10 μg/ml of humanized antibodies at 4° C. for 20 min. […] The quantity of cell-surface bound antibody was determined using a secondary antibody on a FacsCalibur Flow cytometer (Becton Dickinson). […]

B1: hz208F2 H077/L018: humanized 208F2; VH SEQ ID No. 57, VL SEQ ID No. 34 (antibody, V domains shown)
VH: QVQLVQSGAEVKKPGASVKVSCKASGYTFTSYYIHWVRQAPGQGLEWMGWIWPGDGSTKYAQKFQGRVTMTRDTSTSTVYMELSSLRSEDTAVYFCASPMITPNYAMDYWGQGTLVTVSS
VL: DIQMTQSPSSLSASVGDRVTITCRASQDISKYLNWYQQKPGKAPKLLIYYTSRLQSGVPSRFSGRGSGTDYSLTISSLQPEDFATYFCQQGSTLPYTFGGGTKVEIK
modifications: hz208F2 heavy chain H077, VH; hz208F2 Light chain L018, VL
binding as Ac2 after Hz208F2-4 injected as Ac1 (soluble form of h-IGF1R): completely blocks the binding of itself | % Internalization (IGF-1R on MCF-7 cells): 88% | ΔMFI (IGF-1R on MCF-7 cells): 468
